# Measured values as given in paper PMC12528898 (The Journal of Biological Chemistry, 2025).
# T1: mNeon PPM1H (full-length PPM1H with mNeon inserted into loop 1 at position 125) (human, UniProt Q9ULR3 1-514)
# T1 construct: PPM1H phosphatase, human, full length; mNeon inserted into loop 1 (residues 115-133) at position 125; the plasmid is pET15b His SUMO mNeon PPM1H; His-SUMO removed by Ulp1 before gel filtration; also called WT PPM1H; HisSUMO-mNeon PPM1H; not shown: mNeon, internal (loop 1, at position 125), kept
# T1 sequence (looked up): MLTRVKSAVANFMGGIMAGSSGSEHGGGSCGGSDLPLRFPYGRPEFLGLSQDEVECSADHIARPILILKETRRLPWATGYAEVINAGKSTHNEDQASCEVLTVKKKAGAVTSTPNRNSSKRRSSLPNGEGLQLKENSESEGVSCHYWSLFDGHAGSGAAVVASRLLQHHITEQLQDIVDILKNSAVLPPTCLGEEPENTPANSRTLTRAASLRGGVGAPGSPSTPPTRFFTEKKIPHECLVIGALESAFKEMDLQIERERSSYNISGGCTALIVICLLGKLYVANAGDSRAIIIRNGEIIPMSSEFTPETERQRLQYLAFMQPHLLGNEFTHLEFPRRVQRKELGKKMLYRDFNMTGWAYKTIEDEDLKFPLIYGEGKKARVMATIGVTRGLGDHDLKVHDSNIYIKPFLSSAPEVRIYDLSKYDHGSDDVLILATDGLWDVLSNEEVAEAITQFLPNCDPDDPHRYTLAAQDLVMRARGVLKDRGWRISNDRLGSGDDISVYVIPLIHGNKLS
# Molecular target: T1, mNeon PPM1H (full-length PPM1H with …)
# Assay: MST; unlabelled Rab protein (16 serial dilutions) titrated against 100 nM fluorescent mNeon PPM1H variant; 30 min in the dark; Monolith NT.115; three independent measurements with different protein preparations
# Conditions: both partners purified
row,Binder,Kd [nM]
1,"Rab10 Q68L (full length, nonprenylated, nonphosphorylated) (natural protein, human, UniProt P61026 1-200, looked up, also called His SUMO Rab10 (full length) Q68L; untagged Rab10 Q68L; source: E. coli, purified (TALON, Ulp1 cleavage, Superdex 200), 20 μM GTP in all buffers) MAKKTYDLLFKLLLIGDSGVGKTCVLFRFSDDAFNTTFISTIGIDFKIKTVELQGKKIKLQIWDTAGLERFHTITTSYYRGAMGIMLVYDITNGKSFENISKWLRNIDEHANEDVERMLLGNKCDMDDKRVVPKGKGEQIAREHGIRFFETSAKANINIEKAFLTLAEDILRKTPVKEPNSENVDISSGGGVTGWKSKCC",1300
2,"His Rab8A Q67L (full length, nonprenylated, nonphosphorylated) (natural protein, human, UniProt P61006 1-207, looked up, subcloned from HA-Rab8A (DU35414) into pET14b; also called Rab8A-6XHis; unphosphorylated Rab8A; source: E. coli, purified (TALON, Superdex 75), 20 μM GTP in all buffers) MAKTYDYLFKLLLIGDSGVGKTCVLFRFSEDAFNSTFISTIGIDFKIRTIELDGKRIKLQIWDTAGLERFRTITTAYYRGAMGIMLVYDITNEKSFDNIRNWIRNIEEHASADVEKMILGNKCDVNDKRQVSKERGEKLALDYGIKFMETSAKANINVENAFFTLARDIKAKMDKKLEGNSPQGSNQGVKITPDQQKRSSFFRCVLL",1400
3,"Thiophosphorylated His Rab8A Q67L (natural protein, human, UniProt P61006 1-207, looked up, thiophosphorylated with ATPγS by MST3 kinase (fully modified by PhosTag gel); the residue is not given, Rab8A GTPase, full length, Q67L, thiophosphorylated form of m5; also called Thio-pRab8A (Q67L); thiophosphorylated Rab8A; source: E. coli, purified (TALON, Superdex 75); thiophosphorylated in vitro overnight at 4 °C by His-MST3 kinase with ATPγS) MAKTYDYLFKLLLIGDSGVGKTCVLFRFSEDAFNSTFISTIGIDFKIRTIELDGKRIKLQIWDTAGLERFRTITTAYYRGAMGIMLVYDITNEKSFDNIRNWIRNIEEHASADVEKMILGNKCDVNDKRQVSKERGEKLALDYGIKFMETSAKANINVENAFFTLARDIKAKMDKKLEGNSPQGSNQGVKITPDQQKRSSFFRCVLL",1000
4,"Rab12 Q101L (full length, nonprenylated, nonphosphorylated) (natural protein, human, UniProt Q6IQ22-2 1-244, looked up, also called His SUMO Rab12 (full length) Q101L; source: E. coli, purified (TALON, Ulp1 cleavage, Superdex 200), 20 μM GTP in all buffers) MDPGAALQRRAGGGGGLGAGSPALSGGQGRRRKQPPRPADFKLQVIIIGSRGVGKTSLMERFTDDTFCEACKSTVGVDFKIKTVELRGKKIRLQIWDTAGLERFNSITSAYYRSAKGIILVYDITKKETFDDLPKWMKMIDKYASEDAELLLVGNKLDCETDREITRQQGEKFAQQITGMRFCEASAKDNFNVDEIFLKLVDDILKKMPLDILRNELSNSILSLQPEPEIPPELPPPRPHVRCC",7400
